Laboratory results reported in patent US6132730.
“And” between values parts separate entries of the source, which are not always exact repeats. Equal values may be shown once. Read-outs that look alike come from different tables or passages of the source.

Experiments:
[1] = biological target: truncated Tissue Factor tTF219 (extracellular domain of the mature Tissue Factor protein, amino acids 1-219) (human)
[2] = biological target: H6-tTF221-cys-C' (human)
[3] = biological target: H6-N'-cys-tTF219 dimer (human)
[4] = biological target: truncated Tissue Factor tTF219 (extracellular domain of the mature Tissue Factor protein, amino acids 1-219) (human); remark: listed apart in the source
[5] = biological target: H6-tTF219-cys-C' (human)
[6] = biological target: H6-N'-cys-tTF219 (human)
[7] = biological target: H6-tTF220-cys-C' (human)
[8] = biological target: tTF220-cys-C' (human)
[9] = biological target: truncated Tissue Factor tTF219 (extracellular domain of the mature Tissue Factor protein, amino acids 1-219) (human); remark: listed apart in the source
[10] = biological target: tTF221-cys-C' (human)
[11] = biological target: H6-tTF221-cys-C' (human); remark: listed apart in the source
[12] = biological target: truncated Tissue Factor tTF219 (extracellular domain of the mature Tissue Factor protein, amino acids 1-219) (human); remark: listed apart in the source
[13] = biological target: IgG-H6-N'-cys-tTF219 (human)
[14] = biological target: I-A^d (MHC Class II antigen) on A20 mouse B-lymphoma cells (mouse) (UniProt P04228)
[15] = biological target: truncated Tissue Factor tTF219 (extracellular domain of the mature Tissue Factor protein, amino acids 1-219) (human); remark: listed apart in the source

With “B21-2/10H10 bispecific antibody (Fab' arm of B21-2 linked to Fab' arm of 10H10)” the tTF concentration at which plasma coagulated in 50 seconds (A20 cells coated with B21-2/10H10) [1] was 100 pM, the tTF concentration at which plasma coagulated in 50 seconds (A20 cells coated with B21-2/10H10) [2] was 1 nM and the tTF concentration at which plasma coagulated in 50 seconds (A20 cells coated with B21-2/10H10) [3] was 100 pM and 200 pM. It also gave a tTF concentration at which plasma coagulated in 50 seconds (A20 cells coated with B21-2/10H10) [4] of 3 nM, a tTF concentration at which plasma coagulated in 50 seconds (A20 cells coated with B21-2/10H10) [5] of 3 nM and a tTF concentration at which plasma coagulated in 50 seconds (A20 cells coated with B21-2/10H10) [6] of 3 nM. The tTF concentration at which plasma coagulated in 50 seconds (A20 cells coated with B21-2/10H10) [7] was 500 pM, the tTF concentration at which plasma coagulated in 50 seconds (A20 cells coated with B21-2/10H10) [8] was 500 pM and the tTF concentration at which plasma coagulated in 50 seconds (A20 cells coated with B21-2/10H10) [9] was 500 pM. It also gave a tTF concentration at which plasma coagulated in 50 seconds (A20 cells coated with B21-2/10H10) [10] of 500 pM, a tTF concentration at which plasma coagulated in 50 seconds (A20 cells coated with B21-2/10H10) [11] of 500 pM and a tTF concentration at which plasma coagulated in 50 seconds (A20 cells coated with B21-2/10H10) [12] of 1 nM. It also gave a tTF concentration at which plasma coagulated in 50 seconds (A20 cells coated with B21-2/10H10) [13] of 5 nM, a clotting time of citrated mouse plasma on A20 cells [14] of 36 s and a clotting time of citrated mouse plasma on A20 cells [15] of 36 s.
